One block for each molecule: values may come before it.
How the values were obtained:
Assay in all cases: native gel or EMSA; single recombinant Kai proteins or two of them together, 16 h at 30 °C in phosphorylation assay buffer (0.2 µg/µl dephosphorylated Strep-KaiC3, 0.1 µg/µl of the others); 4-16% clear native PAGE at 4 °C; Coomassie or anti-His blot
[1] = biological target: KaiA3-His6 (Synechocystis sp. PCC 6803)
[2] = biological target: Strep-KaiC3 (Synechocystis sp. PCC 6803)
[3] = biological target: KaiB3 (recombinant, GST-tag removed) (Synechocystis sp. PCC 6803)
[4] = biological target: the molecule itself

stoichiometry N [1]: > 2
Molecule: KaiA3-His6 (natural protein)

stoichiometry N [3]: 4
Molecule: KaiB3 (recombinant, GST-tag removed) (natural protein)

Continued, molecule first:

Molecule: Strep-KaiC3 (natural protein)
stoichiometry N [2]: 6

B1: Synechococcus KaiA (recombinant, GST-tag removed) (natural protein, Synechococcus elongatus PCC 7942, UniProt Q79PF6 1-284, looked up)
chain: MLSQIAICIWVESTAILQDCQRALSADRYQLQVCESGEMLLEYAQTHRDQIDCLILVAANPSFRAVVQQLCFEGVVVPAIVVGDRDSEDPDEPAKEQLYHSAELHLGIHQLEQLPYQVDAALAEFLRLAPVETMADHIMLMGANHDPELSSQQRDLAQRLQERLGYLGVYYKRDPDRFLRNLPAYESQKLHQAMQTSYREIVLSYFSPNSNLNQSIDNFVNMAFFADVPVTKVVEIHMELMDEFAKKLRVEGRSEDILLDYRLTLIDVIAHLCEMYRRSIPRET
notes: KaiA of Synechococcus elongatus PCC 7942; plasmid provided by T. Kondo; Migrates at about 60 kDa on clear native PAGE (dimer); source: E. coli BL21(DE3), purified (glutathione-agarose 4B, PreScission cleavage); not shown: GST, N-terminal, cleaved
stoichiometry N [4]: 2

From publication PMC11372060, “Two KaiABC systems control circadian oscillations in one cyanobacterium” (Nature Communications, 2024)
